The record followed here is patent US20190345225A1 (KEROS THERAPEUTICS, published 2019).

Numbering of substitutions follows the chain as printed.

T1: extracellular ActRIIb (SEQ ID NO: 74) fused to the N-terminus of hFc through a GGG linker (human, UniProt Q13705 20-134)
T1 construct: also called ActRIIb (41-155); wild-type extracellular ActRIIb; not shown: human Fc (hFc)
T1 sequence: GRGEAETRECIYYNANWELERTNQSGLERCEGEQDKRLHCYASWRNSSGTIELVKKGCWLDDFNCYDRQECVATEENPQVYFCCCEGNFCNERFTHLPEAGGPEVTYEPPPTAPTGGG

B1: ActRIIa/bmax3 variant (SEQ ID NO: 72) fused to the N-terminus of hFc through a GGG linker (Fc fusion)
chain: GAILGRSETQECLFYNANWELERTNQTGVERCEGEKDKRLHCYATWRNISGSIEIVKKGCWLDDFNCYDRTDCVETEENPQVYFCCCEGNMCNEKFSYFPEMEVTQPTSNPVTPKGGG
notes: not shown: human Fc (hFc)
B2: extracellular ActRIIa (SEQ ID NO: 73) fused to the N-terminus of hFc through a GGG linker (Fc fusion)
chain: AILGRSETQECLFFNANWEKDRTNQTGVEPCYGDKDKRRHCFATWKNISGSIEIVKQGCWLDDINCYDRTDCVEKKDSPEVYFCCCEGNMCNEKFSYFPEMEVTQPTSGGG
notes: also called ActRIIa (19-127); wild-type extracellular ActRIIa; not shown: human Fc (hFc)
B3: ActRIIa/bmax2 (SEQ ID NO: 71) fused to the N-terminus of hFc through a GGG linker (Fc fusion)
chain: GAILGRSETQECLFYNANWELERTNQTGVERCEGEKDKRLHCYATWRNISGSIEIVKKGCWLDDFNCYDRTDCVETEENPQVYFCCCEGNMCNEKFSYFPEMEVTQPTSNPGGG
notes: also called ActRIIa/bmax2 variant; not shown: human Fc (hFc)
B4: BMP-9 (ligand, UniProt Q9UK05 320-429, looked up)
chain: SAGAGSHCQKTSLRVNFEDIGWDSWIIAPKEYEAYECKGGCFFPLADDVTPTKHAIVQTLVHLKFPTKVGKACCVPTKLSPISVLYKDDMGVPTLKYHYEGMSVAECGCR
notes: also called bone morphogenetic protein 9
B5: Activin B (ligand, UniProt P09529 293-407, looked up)
chain: GLECDGRTNLCCRQQFFIDFRLIGWNDWIIAPTGYYGNYCEGSCPAYLAGVPGSASSFHTAVVNQYRMRGLNPGTVNSCCIPTKLSTMSMLYFDDEYNIVKRDVPNMIVEECGCA
B6: extracellular ActRIIa/bΔ9 variant (SEQ ID NO: 58) fused to the N-terminus of hFc through a GGG linker (Fc fusion)
chain: GAILGRSETQECLFYNANWELDRTNQTGVERCEGEKDKRLHCYATWRNISGSIEIVKKGCWLDDFNCYDRTDCVETKENPQVYFCCCEGNMCNEKFSYFPEMEVTQPTSGGG
notes: also called ActRIIA/BΔ9-Fc; not shown: human Fc (hFc)
B7: ActRIIa/b+ (SEQ ID NO: 150) fused to the N-terminus of hFc through a GGG linker (Fc fusion)
chain: B6 chain with D22E, K57A, K77E
notes: also called ActRIIab+ variant; not shown: human Fc (hFc)
B8: ActRIIa/b-delta 9m3 (SEQ ID NO: 41) fused to the N-terminus of hFc through a GGG linker (Fc fusion)
chain: B6 chain with Y43F
notes: also called ActRIIa/bΔ9m3 variant; not shown: human Fc (hFc)
B9: ActRIIa/bmax1 (SEQ ID NO: 70) fused to the N-terminus of hFc through a GGG linker (Fc fusion)
chain: B6 chain with F14Y, D22E, K36Q, K77E
notes: also called ActRIIa/bmax1 variant; not shown: human Fc (hFc)
B10: ActRIIa/b-delta 9m2 (SEQ ID NO: 38) fused to the N-terminus of hFc through a GGG linker (Fc fusion)
chain: B6 chain with F65I
notes: also called ActRIIa/bΔ9m2 variant; not shown: human Fc (hFc)
B11: extracellular ActRIIa/bΔ9 min variant (SEQ ID NO: 6) fused to the N-terminus of hFc through a GGG linker (Fc fusion)
chain: B6 chain with R31P, Y43F, R47K, F65I
notes: not shown: human Fc (hFc)
B12: ActRIIa/b-delta 9m4 (SEQ ID NO: 44) fused to the N-terminus of hFc through a GGG linker (Fc fusion)
chain: B6 chain with R31P
notes: also called ActRIIa/bΔ9m4 variant; not shown: human Fc (hFc)
B13: extracellular ActRIIa/b variant (SEQ ID NO: 69) fused to the N-terminus of hFc through a GGG linker (Fc fusion)
chain: B6 chain with D22E, K77E
notes: also called ActRIIA/B-Fc; not shown: human Fc (hFc)
B14: extracellular ActRIIb variant (SEQ ID NO: 149) fused to the N-terminus of hFc through a GGG linker (Fc fusion)
chain: GRGEAETRECIFYNANWEKDRTNQSGLEPCYGDQDKRRHCFASWKNSSGTIELVKQGCWLDDINCYDRQECVAKKDSPEVYFCCCEGNFCNERFTHLPEAGGPEVTYEPPPTAPTGGG
notes: also called ActRIIb/a variant; ActRIIb/a; not shown: human Fc (hFc)
B15: Activin A (ligand, UniProt P08476 311-426, looked up)
chain: GLECDGKVNICCKKQFFVSFKDIGWNDWIIAPSGYHANYCEGECPSHIAGTSGSSLSFHSTVINHYRMRGHSPFANLKSCCVPTKLRPMSMLYYDDGQNIIKKDIQNMIVEECGCS
B16: growth differentiation factor 11 (GDF11) (ligand, UniProt O95390 299-407, looked up)
chain: NLGLDCDEHSSESRCCRYPLTVDFEAFGWDWIIAPKRYKANYCSGQCEYMFMQKYPHTHLVQQANPRGSAGPCCTPTKMSPINMLYFNDKQQIIYGKIPGMVVDRCGCS

In assay [1] the target is B5. The experiment in a line: SPR, Biacore 3000; receptor fusion captured on chip, ligand in solution. On the technique in general: Surface plasmon resonance follows binding to a sensor surface in real time, without labels.
The assay “BMP-9” addresses B4. The assay is described as above.
The target of assay [2] is B16. Described as above.
The target in assay [3] is B15. Described as above.
Assay [4] deals with B2. The assay is described as above.
Assay [5] addresses T1, extracellular ActRIIb (SEQ ID NO: 74) …. The assay is described as above.
In assay [6] the target is B5. The experiment in a line: SPR, Biacore 3000; receptor fusion captured on the chip by antibody, ligand run in a concentration series.
Assay [7] addresses B16. The assay is described as above.
In assay [8] the target is B15. The description is as above.

In the case of B1, the Kd (in general, the concentration at which binding is half-saturated) in the assay with Activin B [1] is 0.043 nM; in the assay with BMP-9 it was 3.3 nM; in [2] it was 0.214 nM; with Activin A [3], 0.089 nM.

As to B2, the results for the Kd with Activin B [1] and with Activin A [3] were 0.373 nM and 1 nM, respectively.

On to B3, for which the Kd with Activin B [1] came out at 0.039 nM; with BMP-9, 5 nM; in assay [2], 0.113 nM; with Activin A [3], 0.135 nM.

In assay [4], B4 showed a Kd of 25 nM.

In turn, B5 gave a Kd in assay [5] of 0.023 nM.

Turning to B6, the Kd with Activin B [1] was determined as 0.0123 nM; in the assay with BMP-9 it was 10 nM; in assay [2] it was 0.115 nM; with Activin A [3] it was 0.213 nM.

As for B7, the Kd with Activin B [1] stood at 0.282 nM; with BMP-9, 26 nM; with Activin A [3] it was 0.242 nM.

Take B8: the Kd with Activin B [1] was 0.0725 nM; in the assay with BMP-9, 1.2 nM; in assay [2], 0.117 nM; in the assay with Activin A [3], 0.071 nM.

As to B9, the Kd came out at 0.097 nM with Activin B [1], 5.6 nM with BMP-9, 0.236 nM in assay [2] and 0.232 nM with Activin A [3].

For the molecule B10, the Kd is 0.104 nM with Activin B [1], 13 to 18 nM with BMP-9, 0.222 nM in assay [2] and 0.17 nM in the assay with Activin A [3].

As for B11, the Kd came out at 0.088 nM in the assay with Activin B [1], 17 nM with BMP-9, 0.114 nM in assay [2] and 0.31 nM in the assay with Activin A [3].

Turning to B12, the Kd in the assay with Activin B [1] was 0.254 nM; in the assay with BMP-9 it was 14 to 20 nM; in assay [2], 0.394 nM; in the assay with Activin A [3] it was 0.375 nM.

As to B13, the Kd in the assay with Activin B [1] came out at 0.103 nM; in the assay with BMP-9, 4 nM; in assay [2] it was 0.186 nM; with Activin A [3] it was 0.542 nM.

As for B14, the binding result (with Activin B [6]; in assay [7]; with Activin A [8]) was “no binding” each time.

Consider B15, for which the Kd in assay [5] was 0.063 nM.

In the case of B16, the Kd in assay [4] stood at 0.081 nM.
